Target: mβ2m
Assay: SPR; pH 6

Kd | Substance
280 nM | Human AFP N-His
1030 nM | Mouse AFP N-His

Source: patent US20190201496A1
